Measured values from the nanobody polyreactivity screen of Harvey et al. (2022).

Assay: yeast display, Sf9 membrane polyspecificity reagent, FACS + sequencing; frameworks hold sequencing errors
Summary of the method: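 A nanobody's polyreactivity label depends on the gate it was sorted from. Yeast display cells were stained with 10% biotinylated, detergent-solubilized Sf9 membrane reagent for 1 hour at 4 °C, enriched on streptavidin microbeads and sorted by FACS. The low and high (top ~1%) gates were set on anti-HA fluorescence for expression and streptavidin fluorescence for reagent binding.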

Sequence | polyreactivity (PSR sort gate)
QVQLVESGGGLVQAGGSLRLSCAASGGTFGSYTMGWYRQAPGKERELVAAISSGGGTDYADSVKGRFTISRDNAKNTVYLQMNSLIPEDTAVYYCYAKSYYAWGSVRYPQTFDYWGQGTQVTVSS | low polyreactivity
QVQLVESGGGLVQAGGSLRLSCAASGGTFGYNAMGWYRQAPGKERELVAAIRNCGSTYYADSVKGRFTISRDNAKNTVYLQMNSLKQEDTAVYYCAAKVYRKLNYWVQGTQVTVSS | high polyreactivity
QVQLVESGGGLVQAGGSLRLSCAASGGTFHSNAMGWYRQAPGKERELVAAISWSDDTTYYADSVKGRFTISRDNAKNTVYLQINSLKPDDTAVYYCATVFFVLPPSRFDSWGQGTQVTVSS | low polyreactivity
QVQLVESGGGLVQAGGSLRLSCAASGGTFKHYAMGWYRQAAGKERELVAAITRTGGSTYYADSVKGRYTISRDNAKNTVYLQMNSLKPEDTAVYYCAAQRPRGAYRHYDYWGQGTQVTVSS | high polyreactivity
QVQLVESGGGLVQAGGSLRLSCAASGGTFNANGMGWYRQAPGKERELVAAISQRAGRTYYADSVKGRFTISRDNAKNTVYLQMNSLKPEDTAVFYCAKRPTDRRFGSGYWGQGTQVTVSS | high polyreactivity
QVQLVESGGGLVQAGGSLRLSCAASGGTFNGNTMGWYRQAPGKERELVAVIDWSGGSTYYADSVKGRFTISRDNAKNTVYLQMNSLKPEDTAVYYCNADSDAQFREPKGLYYWGQGTQVTVSS | low polyreactivity
QVQLVESGGGLVQAGGSLRLSCAASGGTFPPNTMGWSRQAPGKEREFVAASTWRGSSTYYADSVKGRFTISRDKAKNTVYLQMNSLKPEDTAVYYCAARRAYERMGYWGQGTQVTVSS | high polyreactivity
QVQLVESGGGLVQAGGSLRLSCAASGGTFPQFAMGWYRQAPGKEREFVADITSRGGTTYYADSVKGRFTISRDNAKNTVYLQMNSLKPEDTAVYYCAADNPADWWGLDYWGQGTQVTVSS | low polyreactivity
QVQLVESGGGLVQAGGSLRLSCAASGGTFPQYAMGWYRQAPGKEREFVADITSRGGTTYYADSVKGRFTISRDNAKNTVYLQMNSLKPEDTAVYYCAAVNVAYSWYDTGYDYWGQGTQVTVSS | low polyreactivity
QVQLVESGGGLVQAGGSLRLSCAASGGTFPRNAMGWYRQAPGKERELVAAINQSGGRTYYADSVKGRFTISRDNAKNTVYLQLNSLKPEDTAVYYCAARVTYYRTYRGRQYGYWGQGTQVTVSS | high polyreactivity
QVQLVESGGGLVQAGGSLRLSCAASGGTFPYYAMGWYRQAPGKERELVAAITWDGGSTYYADSVKGRFTISRDNAKNTVYLQMNSLKPDATAVYYCNVRYYRYISRYDYWVQGTQVTVSS | high polyreactivity
QVQLVESGGGLVQAGGSLRLSCAASGGTFQQHAMGWYRKAPGTERELVAAISRSGGNTYYADSVKGRFTISRDNSKNTVYFQMNSLKPEDTAVYSCAVVSSSQYSRYTSQWKEYYWGKGTQVTVSS | low polyreactivity
QVQLVESGGGLVQAGGSLRLSCAASGGTFQRYVMGWYRQAPGKERELVAAISRSGSTYADSVKGRFTISRDNAKNTVYLQMNSLKPEDTAVYYCNVVRYYRYYLHGYDYWGQGTQVTVSS | high polyreactivity
QVQLVESGGGLVQAGGSLRLSCAASGGTFQYYTMGWYRQAPGKERELVAGISSGGSTYYADSVKGRFTISRDNAKNTVYLQMNSLKPEDTAVYYCNAVSRRKTYGYRIIKYDYWGQGTQVTVSS | high polyreactivity
QVQLVESGGGLVQAGGSLRLSCAASGGTFRPNAMGWYRQAPGKERELVAAITRSGGSTYYADSVKGRFTISRDNAKNTVYLQMNSLKPEDTAVYYCARDLRECGQGTQVTVSS | low polyreactivity
QVQLVESGGGLVQAGGSLRLSCAASGGTFRPNAMGWYRQAPGKERELVAAITRSGGSTYYADSVKGRFTISRDNAKNTVYLQMNSLKPVDTAVYYCARDLREWGQGTQVTVSS | low polyreactivity
QVQLVESGGGLVQAGGSLRLSCAASGGTFRRYAMGWSRQAPGKERELVAAITRSGTNTYYADSVKGRFTISRDNAKNTVYLQMNSLNPEDTAVYYCAADGFGKYWGQGTQVTVSS | high polyreactivity
